# Experimental data as given in IntAct's records for PubMed 19940251.
# B1: DNA replication regulator protein HobA (Helicobacter pylori), O25828 (parent)
# chain: MKNFYDWIKEFVRDQGEFIAQQSGWLELERSSYAKLIAQTISHVLNGGSLLVSADSSRHWFLNYILSNLNPKDLKERPLLSVIDFNASSFYPKNDANLSLATIEMTYQNPMFWHVGKIENEGLKTILLSKIPSFLWLFEELKEDCLLLKEHDSLLDYKLLQLFKLFENALFSVLYNKVTL
# partner: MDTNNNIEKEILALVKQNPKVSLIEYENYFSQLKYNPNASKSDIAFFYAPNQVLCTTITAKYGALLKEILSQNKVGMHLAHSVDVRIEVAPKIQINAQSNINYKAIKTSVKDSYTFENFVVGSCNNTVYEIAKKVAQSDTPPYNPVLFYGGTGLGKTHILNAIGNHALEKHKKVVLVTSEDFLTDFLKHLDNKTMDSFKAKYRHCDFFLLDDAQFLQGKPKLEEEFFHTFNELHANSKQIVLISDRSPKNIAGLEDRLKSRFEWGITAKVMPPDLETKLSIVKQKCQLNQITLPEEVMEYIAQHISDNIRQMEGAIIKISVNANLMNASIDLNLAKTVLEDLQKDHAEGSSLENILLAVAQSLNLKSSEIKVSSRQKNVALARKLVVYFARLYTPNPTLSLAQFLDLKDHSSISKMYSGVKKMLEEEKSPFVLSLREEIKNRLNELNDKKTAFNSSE
# Variants of: B1
# Conditions: with dnaa_helpy dnaA
row,Variant,effect of a mutation on the interaction
1,L137P,decreasing interaction
2,L51F,disrupting interaction strength
3,L51S,disrupting interaction strength
4,F166S,decreasing interaction
5,F138S,decreasing interaction
6,H43R,decreasing interaction
7,S67P,decreasing interaction
8,L127P,disrupting interaction
9,L69P,disrupting interaction
10,S88P,disrupting interaction

# Variants of: B1
# Conditions: with dnaa_helpy dnaA
# Remark: another data set of the same source
row,Variant,effect of a mutation on the interaction
1,I41T,disrupting interaction
2,R77C,decreasing interaction
3,F61C,disrupting interaction
4,I118T,disrupting interaction
5,L128P,disrupting interaction
6,L51F,decreasing interaction
7,D55G,disrupting interaction
8,L162P,disrupting interaction
9,A169V,disrupting interaction
10,F138S,disrupting interaction strength
11,F138L,disrupting interaction strength
12,I83M,decreasing interaction
13,L146S,disrupting interaction
14,L174P,disrupting interaction
15,L45P,disrupting interaction
16,H43R,disrupting interaction
17,L170P,disrupting interaction
18,V44A,decreasing interaction
19,M111V,decreasing interaction
20,V115D,disrupting interaction
21,S67P,disrupting interaction
22,L141P,disrupting interaction
23,S99P,decreasing interaction
24,E119G,disrupting interaction
25,F112S,disrupting interaction
26,V82A,decreasing interaction
27,Y107H,decreasing interaction

# Variants of: B1
# Conditions: with dnaa_helpy dnaA
# Remark: another data set of the same source
row,Variant,effect of a mutation on the interaction
1,L80R,disrupting interaction
2,E76A;R77A;P78A,disrupting interaction
3,Y175E,disrupting interaction
